Test results from FireProtDB (doi:10.1016/j.ijbiomac.2008.12.016).
Where “and” joins values, the source holds several entries; their conditions need not be identical. Equal values may be shown once.

Conditions: Oryctolagus cuniculus, pH 8, CD, Tris_HCl 10 mM; for denaturant midpoint (higher = more stable) / unfolding free energy: 25 °C, GdnHCl, reversible: Yes; for unfolding free energy: transition: 3; for Tm / change of melting temperature, mutant - wild type (higher = more stable): Thermal, reversible: No

Chain of Creatine kinase M-type wild type, P00563 (P00563 whole entry): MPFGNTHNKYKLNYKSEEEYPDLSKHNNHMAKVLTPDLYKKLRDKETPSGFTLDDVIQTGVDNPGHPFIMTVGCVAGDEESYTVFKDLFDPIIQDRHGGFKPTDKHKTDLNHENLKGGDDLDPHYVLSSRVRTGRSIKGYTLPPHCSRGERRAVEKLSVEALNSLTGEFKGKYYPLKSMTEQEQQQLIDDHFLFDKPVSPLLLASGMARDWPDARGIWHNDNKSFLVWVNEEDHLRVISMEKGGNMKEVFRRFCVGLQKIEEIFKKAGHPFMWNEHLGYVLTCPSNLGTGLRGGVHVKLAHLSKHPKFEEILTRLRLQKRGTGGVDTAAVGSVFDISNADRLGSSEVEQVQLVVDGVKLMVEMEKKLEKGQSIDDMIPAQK
Chain of Creatine kinase M-type D122A, P00563 (P00563 whole entry D122A): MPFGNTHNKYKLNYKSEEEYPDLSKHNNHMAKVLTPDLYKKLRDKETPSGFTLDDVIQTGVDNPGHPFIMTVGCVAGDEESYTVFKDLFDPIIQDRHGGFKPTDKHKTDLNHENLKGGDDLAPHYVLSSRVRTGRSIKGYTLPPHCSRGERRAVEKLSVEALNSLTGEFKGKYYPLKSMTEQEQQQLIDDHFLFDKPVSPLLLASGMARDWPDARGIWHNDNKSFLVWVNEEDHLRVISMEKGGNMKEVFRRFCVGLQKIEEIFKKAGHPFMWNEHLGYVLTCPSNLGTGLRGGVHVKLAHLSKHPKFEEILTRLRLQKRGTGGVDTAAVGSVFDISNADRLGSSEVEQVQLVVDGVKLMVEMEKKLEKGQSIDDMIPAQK
Chain of Creatine kinase M-type D122N, P00563 (P00563 whole entry D122N): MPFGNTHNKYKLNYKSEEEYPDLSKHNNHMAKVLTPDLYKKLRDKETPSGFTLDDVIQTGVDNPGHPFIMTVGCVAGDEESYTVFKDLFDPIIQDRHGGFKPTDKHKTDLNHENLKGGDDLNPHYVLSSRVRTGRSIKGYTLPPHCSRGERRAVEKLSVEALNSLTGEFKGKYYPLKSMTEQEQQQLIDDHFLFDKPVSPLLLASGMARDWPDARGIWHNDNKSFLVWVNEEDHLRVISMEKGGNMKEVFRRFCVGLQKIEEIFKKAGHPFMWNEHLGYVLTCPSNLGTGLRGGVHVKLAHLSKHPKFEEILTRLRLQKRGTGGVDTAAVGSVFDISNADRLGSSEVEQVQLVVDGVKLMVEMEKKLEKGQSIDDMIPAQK

Row | Substance | denaturant midpoint (higher = more stable) (structure 2CRK) | unfolding free energy (structure 2CRK) | Tm (structure 2CRK) | change of melting temperature, mutant - wild type (higher = more stable) (structure 2CRK) | unfolding free energy | Tm
1 | Creatine kinase M-type D122A, P00563 | 0.24 M | 3.59 kcal/mol | 59.1 °C | 0 °C |  | 
2 | Creatine kinase M-type D122N, P00563 | 0.29 M | 3.59 kcal/mol and 2.87 kcal/mol | 61.2 °C | 2.1 °C |  | 
3 | Creatine kinase M-type wild type, P00563 |  |  |  |  | 3.59 kcal/mol and 4.06 kcal/mol | 59.1 °C
